The source of these data is patent publication EP4782541A1 (Nanjing Probio Biotech Co., Ltd., dated 2026).

The target of experiment [1] is T1, human CD3 (on Jurkat cells) (human, UniProt P07766 23-207; P09693 23-182; P04234 22-171).
T1 construct: whole, on cells
Description: flow cytometry on Jurkat cells expressing human CD3.

Experiment [2] has as its target T2, human ROR1 (on CHO-K1/ROR1 cells and ROR1 tumour cell lines) (human, UniProt Q01973 30-937).
T2 construct: whole, on cells; also called receptor tyrosine kinase-like orphan receptor 1
Description: flow cytometry on CHO-K1/ROR1 cells overexpressing human ROR1.

T1 sequence (P07766 23-207, chain 1 of 3): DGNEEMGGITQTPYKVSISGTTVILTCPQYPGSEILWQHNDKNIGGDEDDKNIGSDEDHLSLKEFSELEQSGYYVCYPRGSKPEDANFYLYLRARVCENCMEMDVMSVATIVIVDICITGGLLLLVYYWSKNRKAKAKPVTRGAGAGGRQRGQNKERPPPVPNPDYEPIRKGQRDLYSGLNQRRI
T1 sequence (P09693 23-182, chain 2 of 3): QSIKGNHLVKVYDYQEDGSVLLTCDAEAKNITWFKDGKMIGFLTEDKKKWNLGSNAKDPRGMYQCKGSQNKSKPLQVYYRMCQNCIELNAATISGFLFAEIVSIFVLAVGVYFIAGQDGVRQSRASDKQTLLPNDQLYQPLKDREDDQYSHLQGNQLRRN
T1 sequence (P04234 22-171, chain 3 of 3): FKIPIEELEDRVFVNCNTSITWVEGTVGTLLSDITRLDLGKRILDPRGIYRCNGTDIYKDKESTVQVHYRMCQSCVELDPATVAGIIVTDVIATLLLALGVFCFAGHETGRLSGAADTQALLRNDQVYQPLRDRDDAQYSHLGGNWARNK
T2 sequence (Q01973 30-937): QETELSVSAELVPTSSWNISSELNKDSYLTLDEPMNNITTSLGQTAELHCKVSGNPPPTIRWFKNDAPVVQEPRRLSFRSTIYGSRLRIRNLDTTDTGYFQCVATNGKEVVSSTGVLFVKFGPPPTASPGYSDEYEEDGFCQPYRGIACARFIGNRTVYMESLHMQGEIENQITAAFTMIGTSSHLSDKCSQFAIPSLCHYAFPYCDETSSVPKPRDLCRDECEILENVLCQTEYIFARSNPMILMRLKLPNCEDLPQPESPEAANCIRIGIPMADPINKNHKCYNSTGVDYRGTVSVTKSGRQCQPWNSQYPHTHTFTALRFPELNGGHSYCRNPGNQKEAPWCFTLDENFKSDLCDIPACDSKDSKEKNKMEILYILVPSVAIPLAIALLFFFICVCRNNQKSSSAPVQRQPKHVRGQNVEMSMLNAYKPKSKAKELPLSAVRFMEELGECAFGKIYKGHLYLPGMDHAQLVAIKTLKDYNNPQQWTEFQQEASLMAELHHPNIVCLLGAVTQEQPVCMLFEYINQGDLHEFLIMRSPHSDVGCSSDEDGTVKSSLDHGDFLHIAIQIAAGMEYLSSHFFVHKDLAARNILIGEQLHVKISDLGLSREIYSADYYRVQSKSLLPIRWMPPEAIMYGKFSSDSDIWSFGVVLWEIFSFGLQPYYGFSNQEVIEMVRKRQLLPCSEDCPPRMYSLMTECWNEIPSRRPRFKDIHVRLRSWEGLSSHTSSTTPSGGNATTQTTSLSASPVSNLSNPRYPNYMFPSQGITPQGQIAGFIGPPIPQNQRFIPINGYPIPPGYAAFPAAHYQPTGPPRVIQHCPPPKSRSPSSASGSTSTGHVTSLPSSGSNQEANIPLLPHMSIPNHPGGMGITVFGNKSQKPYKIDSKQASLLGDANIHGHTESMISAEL

B1: BsAb-4 (bispecific antibody, human IgG1, lambda)
chain: EVQLVESGGGLVQPGGSLRLSCAASGRSFSSFQMGWFRQAPGKEREFVAASGWSGGPTYYWDSVIGRFTISTDNSKNTLYLQMNSLRAEDTAVYYCYEDRVLSGRPVRYWGQGTLVTVSSDKTHTCPPCPAPESTRGPSVFLFPPKPKDTLMISRTPEVTCVVVDVSHEDPEVKFNWYVDGVEVHNAKTKPREEQYNSTYRVVSVLTVLHQDWLNGKEYKCKVSNKALPAPIEKTISKAKGQPREPQVCTLPPSRDELTKNQVSLSCAVKGFYPSDIAVEWESNGQPENNYKTTPPVLDSDGSFFLVSKLTVDKSRWQQGNVFSCSVMHEALHNHYTQKSLSLSPGK
heavy: EVQLVESGGGLVQPGRSLRLSCAASGFTFNTYAMNWVRQAPGKGLEWVARIRSKYNNYATYYADSVKDRFTISRDDSKSIAYLQMNSLKTEDTAVYYCVRHGNFGNSYVSWFAYWGQGTLVTVSSASTKGPSVFPLAPSSKSTSGGTAALGCLVKDYFPEPVTVSWNSGALTSGVHTFPAVLQSSGLYSLSSVVTVPSSSLGTQTYICNVNHKPSNTKVDKKVEPKSCDKTHTCPPCPAPESTRGPSVFLFPPKPKDTLMISRTPEVTCVVVDVSHEDPEVKFNWYVDGVEVHNAKTKPREEQYNSTYRVVSVLTVLHQDWLNGKEYKCKVSNKALPAPIEKTISKAKGQPREPQVYTLPPCRDELTKNQVSLWCLVKGFYPSDIAVEWESNGQPENNYKTTPPVLDSDGSFFLYSKLTVDKSRWQQGNVFSCSVMHEALHNHYTQKSLSLSPGK
light: QTVVTQEPSLTVSPGGTVTLTCRSSTGAVTTSNYANWVQQKPGQAPRGLIGGTNKRAPGVPARFSGSLLGGKAALTLSGVQPEDEAEYFCALWYSNLWVFGGGTKLTVLGQPKAAPSVTLFPPSSEELQANKATLVCLISDFYPGAVTVAWKADSSPVKAGVETTTPSKQSNNKYAASSYLSLTPEQWKSHRSYSCQVTHEGSTVEKTVAPTECS
notes: also called BsAb-04
In the case of B1, the EC50 (in general, the concentration giving half of the maximal effect) in experiment [1] is 0.629 nM; in experiment [2], 0.373 nM.
